In US6896881:

Assays:
[1] = biological target: human EGF receptor on CHO-hEGFr cells (human) (UniProt P00533); test: flow cytometry on CHO-hEGFr cells; 3.9 is the secondary antibody alone
[2] = biological target: human IGF1 receptor on 3T3-hIGF1r cells (human) (UniProt P08069); test: flow cytometry on 3T3-hIGF1r cells; 5.7 is the secondary antibody alone
Chain of UniProt P08069 (P08069 31-1367): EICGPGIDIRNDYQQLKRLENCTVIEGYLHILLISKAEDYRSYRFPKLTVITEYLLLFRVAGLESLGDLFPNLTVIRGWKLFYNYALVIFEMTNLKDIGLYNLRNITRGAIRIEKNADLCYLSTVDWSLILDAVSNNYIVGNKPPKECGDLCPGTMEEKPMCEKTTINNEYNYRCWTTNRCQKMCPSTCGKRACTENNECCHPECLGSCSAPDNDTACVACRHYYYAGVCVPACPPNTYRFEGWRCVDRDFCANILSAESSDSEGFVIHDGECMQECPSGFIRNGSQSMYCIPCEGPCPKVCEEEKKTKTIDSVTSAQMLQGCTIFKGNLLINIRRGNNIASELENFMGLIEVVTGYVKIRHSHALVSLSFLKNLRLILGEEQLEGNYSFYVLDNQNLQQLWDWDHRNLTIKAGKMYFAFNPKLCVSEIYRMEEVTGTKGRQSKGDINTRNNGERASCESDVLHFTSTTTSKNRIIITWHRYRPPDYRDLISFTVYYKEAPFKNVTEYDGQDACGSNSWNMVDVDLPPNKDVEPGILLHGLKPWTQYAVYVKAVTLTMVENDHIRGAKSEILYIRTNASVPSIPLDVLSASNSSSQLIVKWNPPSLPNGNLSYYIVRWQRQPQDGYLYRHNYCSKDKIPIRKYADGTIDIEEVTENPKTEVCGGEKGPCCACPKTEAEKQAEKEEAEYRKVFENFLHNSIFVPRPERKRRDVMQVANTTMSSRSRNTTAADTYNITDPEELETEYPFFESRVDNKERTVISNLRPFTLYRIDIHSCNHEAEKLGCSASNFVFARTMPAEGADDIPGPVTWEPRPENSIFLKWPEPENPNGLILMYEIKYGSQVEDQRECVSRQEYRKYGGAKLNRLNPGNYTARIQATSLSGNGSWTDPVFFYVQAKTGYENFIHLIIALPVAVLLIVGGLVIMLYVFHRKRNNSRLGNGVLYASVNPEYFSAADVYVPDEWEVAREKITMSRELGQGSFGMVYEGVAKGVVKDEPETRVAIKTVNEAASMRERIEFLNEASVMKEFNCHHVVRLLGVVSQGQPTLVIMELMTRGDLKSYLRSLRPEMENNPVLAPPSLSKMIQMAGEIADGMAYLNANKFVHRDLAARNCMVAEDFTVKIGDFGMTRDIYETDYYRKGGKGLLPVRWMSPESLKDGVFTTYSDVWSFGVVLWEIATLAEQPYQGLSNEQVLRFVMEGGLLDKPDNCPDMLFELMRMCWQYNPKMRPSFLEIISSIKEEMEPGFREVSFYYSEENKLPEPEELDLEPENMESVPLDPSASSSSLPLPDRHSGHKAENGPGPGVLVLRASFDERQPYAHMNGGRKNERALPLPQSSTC

In the case of “monoclonal anti-hEGFr antibody clone 528 (Santa Cruz, sc-120)”, the mean fluorescence [1] is reported as 466.

Work on “monoclonal anti-hIGF1r antibody clone 33255.111 (R&D Systems, MAB391)” yielded a mean fluorescence [2] of 251.
